One assay concerns the target human GLP-1 receptor (human, UniProt P43220 24-463). Description: cell-based or functional assay.
The next assay has as its target human glucagon receptor (human, UniProt P47871 26-477). The experiment in a line: cell-based or functional assay.

“And” between values parts separate entries of the source, which are not always exact repeats. Equal entries are not always repeated. Numbered stars: 1 amine (or outer) side, 2 acyl side, 3 side chain; on linkers, the order of the positions; unused ones are H or OH. Side chains are listed from the residue outwards. Ends that are not written are not given here. * marks the point of attachment. γGlu = O=C(O)[C@H](CCC(=O)[*:2])N[*:1]; Palmitoyl = CCCCCCCCCCCCCCCC(=O)*; Ahx = NCCCCCC(=O)O

human GLP-1 receptor, sequence (P43220 24-463): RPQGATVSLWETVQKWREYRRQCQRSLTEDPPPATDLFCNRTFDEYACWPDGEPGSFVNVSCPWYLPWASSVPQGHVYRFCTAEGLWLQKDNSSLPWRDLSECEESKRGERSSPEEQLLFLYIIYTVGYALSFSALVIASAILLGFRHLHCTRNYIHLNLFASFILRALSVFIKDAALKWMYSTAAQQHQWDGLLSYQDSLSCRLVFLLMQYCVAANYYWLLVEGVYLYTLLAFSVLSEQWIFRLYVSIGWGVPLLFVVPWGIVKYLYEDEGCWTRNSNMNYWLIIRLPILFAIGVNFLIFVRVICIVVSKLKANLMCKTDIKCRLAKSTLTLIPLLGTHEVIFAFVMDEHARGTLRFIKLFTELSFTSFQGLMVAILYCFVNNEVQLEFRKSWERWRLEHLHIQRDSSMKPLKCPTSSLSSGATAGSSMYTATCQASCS
human glucagon receptor, sequence (P47871 26-477): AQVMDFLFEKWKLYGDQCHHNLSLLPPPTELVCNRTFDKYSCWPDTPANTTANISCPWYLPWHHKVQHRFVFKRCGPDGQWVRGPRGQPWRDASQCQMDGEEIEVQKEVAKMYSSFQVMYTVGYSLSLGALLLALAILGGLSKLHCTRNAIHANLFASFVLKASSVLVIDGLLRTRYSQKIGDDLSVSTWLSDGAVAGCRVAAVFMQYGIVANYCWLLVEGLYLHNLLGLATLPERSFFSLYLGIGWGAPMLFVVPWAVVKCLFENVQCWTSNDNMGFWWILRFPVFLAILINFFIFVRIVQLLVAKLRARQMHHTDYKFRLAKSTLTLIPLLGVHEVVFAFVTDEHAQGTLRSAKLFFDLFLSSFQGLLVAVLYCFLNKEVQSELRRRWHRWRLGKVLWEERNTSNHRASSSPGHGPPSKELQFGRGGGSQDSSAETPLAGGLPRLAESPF

B1: g317 (peptide)
peptide: HSQGTFTSDYSKYLDSRRAQDFVQWLVAGGSSGGSSK-NH2
For the molecule B1, the cAMP EC50 (assay 1) with human GLP-1 receptor worked out at 2630 pM.

B2: g325 (peptide)
peptide: HSQGTFTSDYSKYLDSRRAQDFVQWLVAGGGGGGK-NH2
Regarding B2, the cAMP EC50 (assay 1) was 10.3 pM with human glucagon receptor and 26.1 pM in the assay with human GLP-1 receptor.

B3: g737 (peptide)
peptide: HGEGTFTSDYSKYLDSK([γGlu-Palmitoyl])RAADFVAWLVAGG-NH2
modifications: N-terminus assumed
SMILES: CCCCCCCCCCCCCCCC(=O)N[C@@H](CCC(=O)NCCCC[C@H](NC(=O)[C@H](CO)NC(=O)[C@H](CC(=O)O)NC(=O)[C@H](CC(C)C)NC(=O)[C@H](Cc1ccc(O)cc1)NC(=O)[C@H](CCCCN)NC(=O)[C@H](CO)NC(=O)[C@H](Cc1ccc(O)cc1)NC(=O)[C@H](CC(=O)O)NC(=O)[C@H](CO)NC(=O)[C@@H](NC(=O)[C@H](Cc1ccccc1)NC(=O)[C@@H](NC(=O)CNC(=O)[C@H](CCC(=O)O)NC(=O)CNC(=O)[C@@H](N)Cc1c[nH]cn1)[C@@H](C)O)[C@@H](C)O)C(=O)N[C@@H](CCCNC(=N)N)C(=O)N[C@@H](C)C(=O)N[C@@H](C)C(=O)N[C@@H](CC(=O)O)C(=O)N[C@@H](Cc1ccccc1)C(=O)N[C@H](C(=O)N[C@@H](C)C(=O)N[C@@H](Cc1c[nH]c2ccccc12)C(=O)N[C@@H](CC(C)C)C(=O)N[C@H](C(=O)N[C@@H](C)C(=O)NCC(=O)NCC(N)=O)C(C)C)C(C)C)C(=O)O
In the case of B3, the values for the cAMP EC50 (assay 1) with human glucagon receptor and in the assay with human GLP-1 receptor were 734000 pM and 81.4 pM, respectively.

B4: g736 (peptide)
peptide: HGQGTFTSDYSKYLDSK([γGlu-Palmitoyl])RAADFVAWLVAGG-NH2
modifications: N-terminus assumed
SMILES: CCCCCCCCCCCCCCCC(=O)N[C@@H](CCC(=O)NCCCC[C@H](NC(=O)[C@H](CO)NC(=O)[C@H](CC(=O)O)NC(=O)[C@H](CC(C)C)NC(=O)[C@H](Cc1ccc(O)cc1)NC(=O)[C@H](CCCCN)NC(=O)[C@H](CO)NC(=O)[C@H](Cc1ccc(O)cc1)NC(=O)[C@H](CC(=O)O)NC(=O)[C@H](CO)NC(=O)[C@@H](NC(=O)[C@H](Cc1ccccc1)NC(=O)[C@@H](NC(=O)CNC(=O)[C@H](CCC(N)=O)NC(=O)CNC(=O)[C@@H](N)Cc1c[nH]cn1)[C@@H](C)O)[C@@H](C)O)C(=O)N[C@@H](CCCNC(=N)N)C(=O)N[C@@H](C)C(=O)N[C@@H](C)C(=O)N[C@@H](CC(=O)O)C(=O)N[C@@H](Cc1ccccc1)C(=O)N[C@H](C(=O)N[C@@H](C)C(=O)N[C@@H](Cc1c[nH]c2ccccc12)C(=O)N[C@@H](CC(C)C)C(=O)N[C@H](C(=O)N[C@@H](C)C(=O)NCC(=O)NCC(N)=O)C(C)C)C(C)C)C(=O)O
As to B4, the cAMP EC50 (assay 1) was 919 pM and 920 pM with human glucagon receptor; 85.4 pM with human GLP-1 receptor.

B5: g787 (peptide)
peptide: HSQGTFTSDYSKYLDSERAK([Ahx-Palmitoyl])DFVAWLERGG-NH2
modifications: not fully specified
Take B5: the cAMP EC50 (assay 1) with human glucagon receptor turned out to be 43.6 pM; with human GLP-1 receptor it was 6650 pM.

B6: g744 (peptide)
peptide: HSQGTFTSDYSKYLDSRRAK([γGlu-Palmitoyl])DFVQWLEAGG-NH2
modifications: N-terminus assumed
SMILES: CCCCCCCCCCCCCCCC(=O)N[C@@H](CCC(=O)NCCCC[C@H](NC(=O)[C@H](C)NC(=O)[C@H](CCCNC(=N)N)NC(=O)[C@H](CCCNC(=N)N)NC(=O)[C@H](CO)NC(=O)[C@H](CC(=O)O)NC(=O)[C@H](CC(C)C)NC(=O)[C@H](Cc1ccc(O)cc1)NC(=O)[C@H](CCCCN)NC(=O)[C@H](CO)NC(=O)[C@H](Cc1ccc(O)cc1)NC(=O)[C@H](CC(=O)O)NC(=O)[C@H](CO)NC(=O)[C@@H](NC(=O)[C@H](Cc1ccccc1)NC(=O)[C@@H](NC(=O)CNC(=O)[C@H](CCC(N)=O)NC(=O)[C@H](CO)NC(=O)[C@@H](N)Cc1c[nH]cn1)[C@@H](C)O)[C@@H](C)O)C(=O)N[C@@H](CC(=O)O)C(=O)N[C@@H](Cc1ccccc1)C(=O)N[C@H](C(=O)N[C@@H](CCC(N)=O)C(=O)N[C@@H](Cc1c[nH]c2ccccc12)C(=O)N[C@@H](CC(C)C)C(=O)N[C@@H](CCC(=O)O)C(=O)N[C@@H](C)C(=O)NCC(=O)NCC(N)=O)C(C)C)C(=O)O
Take B6: the cAMP EC50 (assay 1) in the assay with human glucagon receptor was found to be 39.2 pM; with human GLP-1 receptor, 2450 pM.

B7: g746 (peptide)
peptide: HSQGTFTSDYSKYLDSRRAQDFVK([γGlu-Palmitoyl])WLEAGG-NH2
modifications: N-terminus assumed
SMILES: CCCCCCCCCCCCCCCC(=O)N[C@@H](CCC(=O)NCCCC[C@H](NC(=O)[C@@H](NC(=O)[C@H](Cc1ccccc1)NC(=O)[C@H](CC(=O)O)NC(=O)[C@H](CCC(N)=O)NC(=O)[C@H](C)NC(=O)[C@H](CCCNC(=N)N)NC(=O)[C@H](CCCNC(=N)N)NC(=O)[C@H](CO)NC(=O)[C@H](CC(=O)O)NC(=O)[C@H](CC(C)C)NC(=O)[C@H](Cc1ccc(O)cc1)NC(=O)[C@H](CCCCN)NC(=O)[C@H](CO)NC(=O)[C@H](Cc1ccc(O)cc1)NC(=O)[C@H](CC(=O)O)NC(=O)[C@H](CO)NC(=O)[C@@H](NC(=O)[C@H](Cc1ccccc1)NC(=O)[C@@H](NC(=O)CNC(=O)[C@H](CCC(N)=O)NC(=O)[C@H](CO)NC(=O)[C@@H](N)Cc1c[nH]cn1)[C@@H](C)O)[C@@H](C)O)C(C)C)C(=O)N[C@@H](Cc1c[nH]c2ccccc12)C(=O)N[C@@H](CC(C)C)C(=O)N[C@@H](CCC(=O)O)C(=O)N[C@@H](C)C(=O)NCC(=O)NCC(N)=O)C(=O)O
B7: the cAMP EC50 (assay 1) in the assay with human glucagon receptor was found to be 35.4 pM; in the assay with human GLP-1 receptor it was 11500 pM.

B8: g318 (peptide)
peptide: HSQGTFTSDYSKYLDSRRAQDFVQWLVAGGSSGGSSK(Palmitoyl)-NH2
modifications: N-terminus assumed
SMILES: CCCCCCCCCCCCCCCC(=O)NCCCC[C@H](NC(=O)[C@H](CO)NC(=O)[C@H](CO)NC(=O)CNC(=O)CNC(=O)[C@H](CO)NC(=O)[C@H](CO)NC(=O)CNC(=O)CNC(=O)[C@H](C)NC(=O)[C@@H](NC(=O)[C@H](CC(C)C)NC(=O)[C@H](Cc1c[nH]c2ccccc12)NC(=O)[C@H](CCC(N)=O)NC(=O)[C@@H](NC(=O)[C@H](Cc1ccccc1)NC(=O)[C@H](CC(=O)O)NC(=O)[C@H](CCC(N)=O)NC(=O)[C@H](C)NC(=O)[C@H](CCCNC(=N)N)NC(=O)[C@H](CCCNC(=N)N)NC(=O)[C@H](CO)NC(=O)[C@H](CC(=O)O)NC(=O)[C@H](CC(C)C)NC(=O)[C@H](Cc1ccc(O)cc1)NC(=O)[C@H](CCCCN)NC(=O)[C@H](CO)NC(=O)[C@H](Cc1ccc(O)cc1)NC(=O)[C@H](CC(=O)O)NC(=O)[C@H](CO)NC(=O)[C@@H](NC(=O)[C@H](Cc1ccccc1)NC(=O)[C@@H](NC(=O)CNC(=O)[C@H](CCC(N)=O)NC(=O)[C@H](CO)NC(=O)[C@@H](N)Cc1c[nH]cn1)[C@@H](C)O)[C@@H](C)O)C(C)C)C(C)C)C(N)=O
As for B8, the values for the cAMP EC50 (assay 1) with human glucagon receptor and with human GLP-1 receptor were 9040 pM and 1140 pM, respectively.

B9: g720 (peptide)
peptide: HGQGTFTSDYSRYLDSK([γGlu-Palmitoyl])RARDFVEWLVAGG-NH2
modifications: N-terminus assumed
SMILES: CCCCCCCCCCCCCCCC(=O)N[C@@H](CCC(=O)NCCCC[C@H](NC(=O)[C@H](CO)NC(=O)[C@H](CC(=O)O)NC(=O)[C@H](CC(C)C)NC(=O)[C@H](Cc1ccc(O)cc1)NC(=O)[C@H](CCCNC(=N)N)NC(=O)[C@H](CO)NC(=O)[C@H](Cc1ccc(O)cc1)NC(=O)[C@H](CC(=O)O)NC(=O)[C@H](CO)NC(=O)[C@@H](NC(=O)[C@H](Cc1ccccc1)NC(=O)[C@@H](NC(=O)CNC(=O)[C@H](CCC(N)=O)NC(=O)CNC(=O)[C@@H](N)Cc1c[nH]cn1)[C@@H](C)O)[C@@H](C)O)C(=O)N[C@@H](CCCNC(=N)N)C(=O)N[C@@H](C)C(=O)N[C@@H](CCCNC(=N)N)C(=O)N[C@@H](CC(=O)O)C(=O)N[C@@H](Cc1ccccc1)C(=O)N[C@H](C(=O)N[C@@H](CCC(=O)O)C(=O)N[C@@H](Cc1c[nH]c2ccccc12)C(=O)N[C@@H](CC(C)C)C(=O)N[C@H](C(=O)N[C@@H](C)C(=O)NCC(=O)NCC(N)=O)C(C)C)C(C)C)C(=O)O
In the case of B9, the cAMP EC50 (assay 1) with human glucagon receptor was 352 pM; with human GLP-1 receptor it was 53.4 pM.

B10: g402 (peptide)
peptide: HSQGTFTSDYSKYLDSRRAQDFVQWLVAGGSGSGSG-NH2
On to B10, for which the cAMP EC50 (assay 1) stood at 59.6 pM in the assay with human glucagon receptor and 85.7 pM in the assay with human GLP-1 receptor.

B11: g701 (peptide)
peptide: HGQGTFTSDYSK([γGlu-Palmitoyl])YLDSERAQDFVQWLERGG-NH2
modifications: N-terminus assumed
SMILES: CCCCCCCCCCCCCCCC(=O)N[C@@H](CCC(=O)NCCCC[C@H](NC(=O)[C@H](CO)NC(=O)[C@H](Cc1ccc(O)cc1)NC(=O)[C@H](CC(=O)O)NC(=O)[C@H](CO)NC(=O)[C@@H](NC(=O)[C@H](Cc1ccccc1)NC(=O)[C@@H](NC(=O)CNC(=O)[C@H](CCC(N)=O)NC(=O)CNC(=O)[C@@H](N)Cc1c[nH]cn1)[C@@H](C)O)[C@@H](C)O)C(=O)N[C@@H](Cc1ccc(O)cc1)C(=O)N[C@@H](CC(C)C)C(=O)N[C@@H](CC(=O)O)C(=O)N[C@@H](CO)C(=O)N[C@@H](CCC(=O)O)C(=O)N[C@@H](CCCNC(=N)N)C(=O)N[C@@H](C)C(=O)N[C@@H](CCC(N)=O)C(=O)N[C@@H](CC(=O)O)C(=O)N[C@@H](Cc1ccccc1)C(=O)N[C@H](C(=O)N[C@@H](CCC(N)=O)C(=O)N[C@@H](Cc1c[nH]c2ccccc12)C(=O)N[C@@H](CC(C)C)C(=O)N[C@@H](CCC(=O)O)C(=O)N[C@@H](CCCNC(=N)N)C(=O)NCC(=O)NCC(N)=O)C(C)C)C(=O)O
Take B11: the cAMP EC50 (assay 1) stood at 3830 pM with human glucagon receptor and 7400 pM in the assay with human GLP-1 receptor.

These data come from patent US20190185537A1 (AstraZeneca / MedImmune, published 2019).
